Experimental findings from the nanobody polyreactivity screen of Harvey et al. (2022) are described below.

The nature of this data set: yeast display, Sf9 membrane polyspecificity reagent, FACS + sequencing; frameworks hold sequencing errors. Put shortly:
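Genes from sorted yeast were amplified by colony PCR, read by MiSeq 2 × 250 sequencing and filtered on CDR length. These cells carried a synthetic nanobody library in Saccharomyces cerevisiae BJ5465 and were sorted by FACS into low and high (top ~1%) gates on anti-HA and streptavidin fluorescence. Polyreactivity is labelled according to the gate of origin.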
As for “QVQLVESGGGLVQAGGSLRLSCAASGGTFTRYAMGWYRQAPGKEREFVAAITFSGGSTYYADSVKGRFTISRDNAKNTVYLQMNSLKPEDTAVYYCAVRERSTYRYYYWGQGTQVTVSS”, the “polyreactivity (PSR sort gate)” value is recorded as “high polyreactivity”. Take “QVQLVESGGGLVQAGGSLRLSCAASGGTFTYYAMGWYRQAPGKVRELVAAISWSGGSTYYADSVKGRFTISRDIAKNSVYLQMNSLKPEDSAVYYCAADYTGHFYYYWGQGTQVTVSS”: the “polyreactivity (PSR sort gate)” value is on record as “low polyreactivity”. “QVQLVESGGGLVQAGGSLRLSCAASGGTFVGNAMGWYRQAPGKERELVAAISTNSGSTYYADSVKGRFTISRDNAKNTVYLQMNSLKPEDTAVYYCATRNSSKRRGYYYWGQGTQVTVSS”: the “polyreactivity (PSR sort gate)” value is “high polyreactivity”. As for “QVQLVESGGGLVQAGGSLRLSCAASGGTFVYYAMGWYRQAPGKERELVAAINWSGGSTYYADSVKGRFTISRDNAKNTVYLQMNSLKPEDTAVLLLQRSGLRRSGVWFDYWGQGTQVTVSS”, the entry is “low polyreactivity”; as for “QVQLVESGGGLVQAGGSLRLSCAASGGTFWLYTMGWYRQAPGTERELVAAITKSGGSTYYADSVKGRFTISRDNAMNTVYLQMNSLKPEDTAVYYCAARYSVYRDGYYWGQGTQVTVSS”, “high polyreactivity”.

On to “QVQLVESGGGLVQAGGSLRLSCAASGGTFWYYDMGWYRQAPGKERELVAAISSGGNTYYADSVKGRFTISRDNAKNTVYLQMNSLKREDNAVYYWAALPKYGSYYYYPPFDYDYWGHGTQVTVSS”, for which the “polyreactivity (PSR sort gate)” value is reported as “low polyreactivity”. For the sequence “QVQLVESGGGLVQAGGSLRLSCAASGGTFYLYAMGWYRQAPGKERELVAAISRSGGITYYADSVKGRFTISRDNAKNTVYLQMNSLKPEDTAVYYCDAAALSRYRLQEGYYWGQGTQVTVSS”, the “polyreactivity (PSR sort gate)” value is “high polyreactivity”. As for “QVQLVESGGGLVQAGGSLRLSCAASGGTFYRNAMGWYRQAPGKERELVASISRTGGSTYYADSVKGRFTISRDIAKNTVYLQMNSLKPEDTAVYYCAKKQPRYSYFDNDYWGQGTQVTVSS”, the entry is “high polyreactivity”; as for “QVQLVESGGGLVQAGGSLRLSCAASGGTFYRNDMGWYRQAPGKERELVAVITYRGGSTDYADSVKGRFTISRDNAKNTVYFQMNSLKPEDTAVYYCAVDYTFSYPYEDDYWGQGTQVTVSS”, “low polyreactivity”. Take “QVQLVESGGGLVQAGGSLRLSCAASGGTFYVNDMGWYRQAPGKERELVATITYSGTSTYYADSVKGRFTISRDNAKNTVYLQMNSLKAEDTAVYYCATDVLLYFEPVNLDYWGQGTQVTVSS”: the “polyreactivity (PSR sort gate)” value is on record as “low polyreactivity”. As to “QVQLVESGGGLVQAGGSLRLSCAASGGTFYYYAMGWYRQPPGKERELGAAITGTGGRTYYADSVKGRFTISRDNAKNTVSLQMNSLKPEDTAVYYCATDALYGSGYDYWGQGTQVTVSS”, the “polyreactivity (PSR sort gate)” value is recorded as “high polyreactivity”. For the sequence “QVQLVESGGGLVQAGGSLRLSCAASGGTIAYNAMGWYRQAPWKERELVAAISSSGGRTYYADSVKGRFTITRDNAKNTVYLQMNRLKPEDTAVYYCATPVTNGFDYWGQGTQVTVSS”, the “polyreactivity (PSR sort gate)” value is recorded as “high polyreactivity”. As for “QVQLVESGGGLVQAGGSLRLSCAASGGTILLYAMGWYRQAPGKERELVAGINSGGSTYYADSVKGRFTISRDNAKNTVYLQMNSLKPEDTAVYYCNARSTRYGGDYWGQGTQVTVSS”, the “polyreactivity (PSR sort gate)” value is listed as “low polyreactivity”. Consider “QVQLVESGGGLVQAGGSLRLSCAASGGTIVWNAMGWYRQAPGKEREFVAAITSSGGSTYYADSVKGRFTISRDNEKNTVYLQMNSLKPEDTAVYYCNVDTHSSYEFNSWGQGTQVTVSS”, for which the “polyreactivity (PSR sort gate)” value is on record as “low polyreactivity”. As to “QVQLVESGGGLVQAGGSLRLSCAASGGTLGTYAMGWYRQAPGKERELVASIDSGDSTYYADSVKGRFTISRDNAKNTVYLQMNSLKPEDTAVYYCAAAYFRRYTTTWYGYEYWGQGTQVTVSS”, the “polyreactivity (PSR sort gate)” value is reported as “low polyreactivity”.

For “QVQLVESGGGLVQAGGSLRLSCAASGGTLKYYAMGLYRQAPGKERELVATISSRGGSTYYADSVKGRFTISRDNAKNTVYLQMNSLKPEDTAVYYCARRYWVQSRYPEMDYWGQGTQVTVSS”, the “polyreactivity (PSR sort gate)” value was “high polyreactivity”.
